{
  "source": "paper PMC11103113",
  "about": "“Evidence for dual targeting control of Arabidopsis 6-phosphogluconate dehydrogenase isoforms by N-terminal phosphorylation” (Journal of Experimental Botany, 2024)",
  "binders": {"B1": {"name": "PGD2_new medial C420S (enzyme)", "chain": "MAVQPTRIGLAGLAVMGQNLALNIAEKGFPISVYNRTTSKVDETVERAKKEGNLPLYGFHDPESFVKSIQKPRVIIMLVKAGSPVDQTIKTLSAYLEKGDCIVDGGNEWYENTERREKAVAENGFLYLGMGVSGGEEGARNGPSMMPGGSYEAYKNIEDIVLKVAAQVRDSGPCVTYIGKGGSGNFVKMVHNGIEYGDMQLIAEAYDVLKSVGKLSNEELHSVFSDWNKGELESFLVEITADIFGIKDDKGDGHLVDKVLDKTGMKGTGKWTVQQAAELSVPAPTIESSLDARFLSGLKDERVQAAKVFKAGGFGDILTDQKVDKKQLVDDVRKALYASKICSYAQGMNLIRAKSIEKGWGLKLGELARIWKGGCIIRAIFLDRIKQAYDRNAELANLLVDPEFAKEIIERQSAWRRVVSLAINSGISTPGMSASLAYFDSYRRERLPANLVQAQRDYFGAHTYERTDVEGSFHTEWFKIARQSKI"}, "B2": {"name": "His-PGD2 wild type (full-length protein) (enzyme, Arabidopsis thaliana, UniProt Q9FWA3 1-486, looked up)", "chain": "B1 chain with S420C", "notes": "Arabidopsis thaliana PGD2 (At3g02360), full-length protein, cDNA cloned in pET16b; Cloning analogous to Hölscher et al. (2016); Found as monomer and dimer on the semi-native gel; source: E. coli BL21minus (G6PDH-deficient), in cleared extract"}},
  "key": {"[1]": {"target": "PGD2_new medial C420S (Arabidopsis thaliana) (UniProt Q9FWA3)"}, "[2]": {"target": "the molecule itself", "test": "semi-native SDS-PAGE with anti-His immunoblot; His-PGD2 variants from cleared E. coli BL21minus extracts, sample buffer without SDS and DTT and without boiling; monomer to dimer"}},
  "note": "Substitutions are numbered along the chain they refer to. Names and notes keep the numbering of the source.",
  "data": [
    {"binder": "B1", "values": [
      {"measurement": "6PGDH activity upon GFP-based pull-down from protoplasts, relative to the corresponding wild-type version (% of the corresponding wild-type version)", "setting": "[1]", "result": 80}
    ]},
    {"binder": "B2", "values": [
      {"measurement": "stoichiometry N", "setting": "[2]", "result": 2}
    ]}
  ]
}
